Laboratory results: publication PMC5942852

Tests used:
CH103 (human) [1] = experiment: SPR; ProteOn XPR36 (Bio-Rad), GLC chip; IgG captured on amine-coupled anti-human capture antibody (Human Antibody Capture Kit), antigen as analyte; 1x HBS-EP+ pH 7.4 with BSA 1 mg/ml; equilibrium or kinetic Langmuir model
[2] = target: CH103 WT with the H2-6 residue at position 67 (E->Y) (human); experiment: as above
[3] = target: H2-6 position 59 mutant (Y->F) (human); experiment: as above
[4] = target: H2-6 position 67 mutant (Y->E) (human); experiment: as above
H2-6 position 67 mutant (Y->E) (human), sequence (heavy, as listed by the source, chain 1 of 2): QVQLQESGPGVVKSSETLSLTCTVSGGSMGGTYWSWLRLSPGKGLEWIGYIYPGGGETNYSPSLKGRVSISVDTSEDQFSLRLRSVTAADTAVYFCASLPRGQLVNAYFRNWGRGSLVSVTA
H2-6 position 67 mutant (Y->E) (human), sequence (light, as listed by the source, chain 2 of 2): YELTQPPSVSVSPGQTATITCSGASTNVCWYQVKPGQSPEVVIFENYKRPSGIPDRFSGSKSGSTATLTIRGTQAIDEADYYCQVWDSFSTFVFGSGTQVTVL

CH103 (human) [5] = experiment: SPR; Biacore 4000, CM5 chip; IgG captured on amine-coupled anti-human capture antibody (Human Antibody Capture Kit), antigen as analyte; 1x HBS-EP+ pH 7.4 with BSA 1 mg/ml; equilibrium or kinetic Langmuir model; apparent KD

CH103 (human), sequence (heavy, as listed by the source, chain 1 of 2): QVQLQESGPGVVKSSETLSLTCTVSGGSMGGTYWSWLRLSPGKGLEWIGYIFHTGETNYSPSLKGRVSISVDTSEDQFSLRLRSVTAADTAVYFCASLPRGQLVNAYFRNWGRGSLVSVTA
CH103 (human), sequence (light, as listed by the source, chain 2 of 2): as the sequence (light, as listed by the source, chain 2 of 2) above
CH103 WT with the H2-6 residue at position 67 (E->Y) (human), sequence (heavy, as listed by the source, chain 1 of 2): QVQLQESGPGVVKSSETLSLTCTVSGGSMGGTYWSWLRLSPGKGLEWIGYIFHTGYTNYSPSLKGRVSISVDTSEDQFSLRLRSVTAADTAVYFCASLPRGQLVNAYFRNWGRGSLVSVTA
CH103 WT with the H2-6 residue at position 67 (E->Y) (human), sequence (light, as listed by the source, chain 2 of 2): as the sequence (light, as listed by the source, chain 2 of 2) above
H2-6 position 59 mutant (Y->F) (human), sequence (heavy, as listed by the source, chain 1 of 2): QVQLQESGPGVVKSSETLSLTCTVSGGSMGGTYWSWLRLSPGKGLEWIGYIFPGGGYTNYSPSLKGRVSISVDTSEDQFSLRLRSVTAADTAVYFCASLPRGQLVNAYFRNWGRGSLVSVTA
H2-6 position 59 mutant (Y->F) (human), sequence (light, as listed by the source, chain 2 of 2): as the sequence (light, as listed by the source, chain 2 of 2) above

Row | Substance | Kd (CH103 (human) [1]) [nM] | Kd [2] [nM] | Kd [3] [nM] | Kd [4] [nM] | Kd (CH103 (human) [5]) [nM]
1 | gp120 Core Bal (domain or fragment) | 1100 | 11.7 | 12.8 | 212 | 91
2 | gp120 Core HXB2 (domain or fragment) | 138 | 2.3 | 2.2 | 30.9 | 52
